“Also recorded” adds a separate entry of the source.
B1: RSpo1: secreted glycoprotein, Wnt agonist, Genbank Accession NP_001033722 (protein, UniProt Q2MKA7 21-263, looked up)
R-spondin-1: SRGIKGKRQRRISAEGSQACAKGCELCSEVNGCLKCSPKLFILLERNDIRQVGVCLPSCPPGYFDARNPDMNKCIKCKIEHCEACFSHNFCTKCKEGLYLHKGRCYPACPEGSSAANGTMECSSPAQCEMSEWSPWGPCSKKQQLCGFRRGSEERTRRVLHAPVGDHAACSDTKETRRCTVRRVPCPEGQKRRKGGQGRRENANRNLARKESKEAGAGSRRRKGQQQQQQQGTVGPLTSAGPA
B2: Dkk1: Wnt inhibitor; murine Dkk1 bearing N-terminal HA-tag and C-terminal FLAG and 6×His tags (protein, UniProt O54908 32-272, looked up)
Dickkopf-related protein 1: TLNSVLINSNAIKNLPPPLGGAGGQPGSAVSVAPGVLYEGGNKYQTLDNYQPYPCAEDEECGSDEYCSSPSRGAAGVGGVQICLACRKRRKRCMRHAMCCPGNYCKNGICMPSDHSHFPRGEIEESIIENLGNDHNAAAGDGYPRRTTLTSKIYHTKGQEGSVCLRSSDCAAGLCCARHFWSKICKPVLKEGQVCTKHKRKGSHGLEIFQRCYCGEGLACRIQKDHHQASNSSRLHTCQRH
modifications: N-terminal HA tag, C-terminal FLAG and 6xHis tags
notes: murine Dkk1 bearing N-terminal HA-tag and C-terminal FLAG and 6×His tags

Key:
[1] = system: intestinal epithelial proliferation; details: cited from earlier work
[2] = system: intestinal explants; test: Growth of intestinal explant (sphere) cultures under Wnt modulation; type: cell-based, mouse; details: for explant growth: intestinal explant culture
Source text: Small intestine or colon of C57Bl/6J mice is procured under sterile conditions, minced and mixed with type I collagen gel. Subsequently, these explant containing gels are poured onto transwell cell culture inserts with a collagen gel layer. Transwell cell culture inserts are available commercially from a number if resources e.g. Corning, Signaaldrich. These cell culture inserts are placed into secondary outer dishes containing HAMs F-12 with 20% FCS. Proliferation and histology of the explant is depicted in FIG. 4A-4D. Electron micrographs of the intestinal explants in FIG. 5A-5E reveal that the ultrastructure of the intestinal epithelium is preserved.
Before preparing the tissue, an inner container with a gel as bottom layer was made. The procedure described herein used Cellmatrix type I-A (Nitta Gelatin Inc.) e.g. collagen gel. The inner dish has permeable membrane bottom. Millicell culture plate inserts (Millicell-CM, Millipore Co.) or Falcon cell culture inserts (BD Co.) was used as the inner dish. 1 ml of collagen gel solution was poured into a 30-mm diameter inner dish in combination with 60 mm diameter outer dish and 2 ml of culture media. 0.3 ml collagen gel solution was poured into 10-mm diameter inner dish in combination with a 24-well outer dish and 0.5 ml of culture media.
Small or large intestine was removed from mouse (fetus, neonate, juvenile, or adult) aseptically. The removed tissue was immediately immersed in ice-cold PBS or other culture media/tissue preservative solution such as Ham's F12, MEM, etc. The small intestine or colon are opened lengthwise and washed in ice-cold PBS to remove all luminal contents. The washed tissue was minced with scissors to a size less than about 0.1 mm^3. The minced tissue was mixed in ice-cold collagen gel solution and poured onto the prepared inner dish. The inner dish was placed in an outer dish. The gel was solidified at 37° C. for 30 min. After solidification of the gel, culture media was poured into outer dish. Ham's F12 supplemented with 20% fetal calf serum and 50 μg/ml gentamicin was used as culture medium. The culture can be sustained for over a year at 37° C. in a humidified atmosphere of 5% CO2 in air. Medium was changed about every 7 days.
Three-Dimensional Explant Culture System. The mouse small and large intestine (optimally postnatal days 0-2) was opened lengthwise and washed in PBS to remove all luminal contents. A 1 cm segment was minced immediately and extensively on ice with iris scissors. The minced tissues were embedded in a three-dimensional collagen gel using a double-dish culture system. A 1 ml collagen gel solution (Nitta Gelatin Co.) was poured into a 30-mm dish (Millicell-CM, Millipore Co.), the inner dish, with a nitrocellulose bottom to form an acellular layer. Next, a 1 ml collagen gel solution containing a total of 0.1 g minced tissues was placed on the acellular layer in the dish. This inner dish was placed into a 90-mm outer dish containing 10 ml Ham's F12 supplemented with 20% FCS and 50 μg/ml gentamicin. The culture assembly was carried out for 7-365 days at 37 C in a humidified atmosphere of 5% CO2 in air, and the medium was changed every 7 days. Where appropriate, murine RSpo1-Fc, Dkk1 or DBZ (Calbiochem) were included in the outer dish medium at 500 ng/ml, 0.5-50 μg/ml and 10 μM respectively with change of medium every 1-2 days.
This culture system maintains the cultured cells embedded in the collagen gel under an air-liquid interface environment. Before preparing the tissue, an inner dish with collagen gel bottom layer should be made. The following procedure is done using Cellmatrix type I-A (Nitta Gelatin Inc.) as a premixed type I collagen gel, however, other products are able to use as an extracellular matrix, such as matrigel. The inner dish should have permeable and/or pored membrane bottom, such as a cell culture insert. […]

Molecule	intestinal proliferation in vivo [1]	explant growth [2]	explant growth ([2]; listed as R-Spondin1)	effect on epithelial layer of pre-established spheres ([2]; d28 pre-established small or large intestine spheres, treated additional 5d)	long-term regrowth after transient treatment ([2]; jejunal explants, 50 μg/ml for 7 days, then 35d without Dkk1)	growth when added to culture media at the time of plating ([2]; recombinant protein at plating)
B1	strongly augments intestinal proliferation in vivo; also recorded: strongly induce intestinal proliferation in vivo	stimulation; also recorded: markedly stimulated; also recorded: increased growth	promoted			
B2	rapid cessation of intestinal epithelial proliferation and crypt loss	inhibited; also recorded: strong inhibition of explant growth		rapid degeneration of the epithelial layer	lack of long-term repopulation; also recorded: sufficient to ablate culture growth; also recorded: No growth of intestinal spheres was observed	dose-dependent growth inhibition
